According to paper PMC11111636 (EJNMMI Radiopharmacy and Chemistry, 2024):

How the values were obtained:
[1] = Procedure: Distribution coefficient was determined by a shake-flask method. […] The vial was vortexed vigorously and then centrifuged at 10,000 rpm for 10 min for phase separation. Samples (100 μL) of the n-octanol and aqueous phases were taken and measured in the gamma counter. LogD7.4 value was calculated by using the following equation: LogD7.4 = log [(counts in n-octanol phase)/(counts in aqueous phase)]. Measurements were performed in triplicates.
[2] = In vitro stability in PBS (radio-HPLC); format: physicochemical; conditions: 37 °C; for PBS (%) intact labeled ligand: n = 1
[3] = in vitro; conditions: mouse, mouse serum, Mouse serum (%) intact labeled ligand, 37 °C, n = 1
Procedure: Stability of the radiolabeled peptide was monitored at 1, 4 and 24 h post incubation. The samples in PBS were directly analyzed by radio-HPLC without any pretreatment. However, samples in mouse serum were mixed with an equal volume of acetonitrile to precipitate the proteins. The solution was centrifuged for 10 min at 13,000 rpm and the supernatant was analyzed by radio-HPLC.

[4] = test system: U2OS.SSTR2 cells; test: Uptake/internalization studies in U2OS.SSTR2 cells; format: cell-based, human
Procedure: Cells were seeded in 6-well plates 24 h before the experiment (7 × 10^5 cells/well). […] The membrane-bound fraction was collected by incubating cells with an acid buffer (50 mM glycine, 100 mM NaCl, pH 2.8) for 10 min at rt. The internalized fraction was determined by lysing the cells with 1 M NaOH for 5 min at rt. Both fractions were measured in a gamma counter, and data were analyzed in GraphPad Prism v9 and expressed as percentage of added dose.

[5] = Ex vivo biodistribution in H69-tumor bearing mice; conditions: mouse, in vivo; for tissue uptake at 4 h / tissue uptake at 1 h / tissue uptake at 24 h: n = 4; for tissue uptake at 1 h: 1 h p.i.; for tissue uptake at 24 h: 24 h p.i.
Procedure: (§1) Six-week‐old female Balb/c nu/nu‐specific mice (Janvier Labs, Le Genest‐Saint‐Isle, France) were housed in individually ventilated cages (4 mice/cage). Upon arrival, mice were acclimated for one week, with access to food and water ad libitum. Mice were subcutaneously inoculated on the right shoulder with NCI-H69 cells (5 × 10^6 cells) suspended in 100 μL of 1/3 Matrigel (Corning Inc.; Corning, NY, USA) and 2/3 Hank’s balanced salt solution (Gibco; Paisley, UK). NCI-H69 xenografts were allowed to grow for 2 weeks.
(§2) At 3 selected time points (1, 4 and 24 h; n = 4) p.i., blood was collected via retro-orbital puncture under isoflurane/O2 anesthesia, after which the mice were sacrificed via cervical dislocation. The tumor and organs of interest (heart, lungs, liver, spleen, stomach, large intestine, small intestine, pancreas, kidneys, muscle, skin, bone) were excised, washed in PBS and blotted dry. […] To determine the total injected radioactivity per animal, a calibration curve with indium-111 was established using the gamma counter. The percentage of injected dose per gram (% ID/g) was determined for each tissue and corrected for both the injected activity and % ID present at the injection site (the tail). Then, the tumor and the organs were placed in a petri dish and ex vivo optical imaging was performed with the IVIS Spectrum system (Perkin Elmer, Waltham, MA, USA) using the following settings for all measurements: FOV 19.5 cm, medium binning, f2, 60 s exposure with an excitation/emission filter of 646 nm/662 nm. Living Image version 4.5.2 software (Perkin Elmer) was used to perform data analysis by drawing regions of interest around the organ/tissue to quantify the radiant efficiency {(photons/second/cm^2/steradian)/(μW/cm^2)}.

[6] = test system: H69-xenograft Balb/c nu/nu mice; test: Ex vivo biodistribution in H69-tumor bearing mice; conditions: for Tumor uptake lower than the tumor uptake of [111In]In-DOTA-TATE: P < 0.05
Procedure: as §1, §2

[7] = iv, 2 nmol, Uptake in Intestines

What does the source list for `C[C@@H](O)[C@H](NC(=O)[C@@H]1CSSC[C@H](NC(=O)[C@@H](Cc2ccccc2)NC(=O)CCC(C(=O)O)N2CCN(CC(=O)O)CCN(Cc3cccc(COCCCn4nnc5c4-c4ccccc4N(C(=O)CCCCCNC(=O)CCCCC[N+]4=C(C=CC=CC=C6N(C)c7ccc(S(=O)(=O)[O-])cc7C6(C)C)C(C)(C)c6cc(S(=O)(=O)O)ccc64)Cc4ccccc4-5)n3)CCN(CC(=O)O)CC2)C(=O)N[C@@H](Cc2ccc(O)cc2)C(=O)N[C@H](Cc2c[nH]c3ccccc23)C(=O)N[C@@H](CCCCN)C(=O)N[C@@H]([C@@H](C)O)C(=O)N1)C(=O)O` (some centres unmarked) [[^111In]In-eTFC-01, metal not drawn]?
LogD7.4 ([1]; n-octanol/PBS pH 7.4, n = 3): negative; logD ([1]; pH 7.4): -0.7 ± 0.06; Degradation in PBS buffer ([2]; up to 24 h): No degradation; PBS (%) intact labeled ligand ([2]; 1 h): 99.0%; PBS (%) intact labeled ligand ([2]; 4 h): 99.0%; PBS (%) intact labeled ligand ([2]; 24 h): 99.0%; remaining at 1 h ([3]; 1 h): 97.9%; remaining at 4 h ([3]; 4 h): 86%; remaining at 24 h ([3]; 24 h): 71%; Internalized fraction of radioactivity ([4]; 10^-9 M, 90 min, 37 °C): 97%; Total uptake ([4]; 10^-9 M, 90 min, 37 °C, % of added dose per 1,000,000 cells, n = 3): 20.87 ± 1.92 % AD; Cell uptake with excess of unlabeled DOTA-TATE ([4]; 50-fold excess DOTA-TATE): almost completely blocked; Drop of the cell uptake in presence of an excess of DOTA-TATE ([4]; 50-fold excess DOTA-TATE): 95%; tissue uptake ([5]; 2 nmol, Tumor uptake, from 1 h to 24 h post injection): 2 to 3 %ID/g; tissue uptake at 4 h ([5]; Uptake in Blood, 4 h block (co-injected 50 nmol DOTA-TATE)): 4.11 ± 0.16 %ID/g; tissue uptake at 4 h ([5]; Uptake in Bones, 4 h block (co-injected 50 nmol DOTA-TATE)): 1.53 ± 0.27 %ID/g; tissue uptake at 4 h ([5]; Uptake in Heart, 4 h block (co-injected 50 nmol DOTA-TATE)): 2.14 ± 0.46 %ID/g; tissue uptake at 4 h ([5]; Uptake in Intestines, 4 h block (co-injected 50 nmol DOTA-TATE)): 1.48 ± 0.13 %ID/g; tissue uptake at 4 h ([5]; Uptake in Kidneys, 4 h block (co-injected 50 nmol DOTA-TATE)): 46.6 ± 6.34 %ID/g; tissue uptake at 4 h ([5]; Uptake in Liver, 4 h block (co-injected 50 nmol DOTA-TATE)): 10.6 ± 1.55 %ID/g; tissue uptake at 4 h ([5]; Uptake in Lungs, 4 h block (co-injected 50 nmol DOTA-TATE)): 6.05 ± 0.59 %ID/g; tissue uptake at 4 h ([5]; Uptake in Muscle, 4 h block (co-injected 50 nmol DOTA-TATE)): 0.67 ± 0.08 %ID/g; tissue uptake at 4 h ([5]; Uptake in Pancreas, 4 h block (co-injected 50 nmol DOTA-TATE)): 0.95 ± 0.23 %ID/g; tissue uptake at 4 h ([5]; Uptake in Skin, 4 h block (co-injected 50 nmol DOTA-TATE)): 3.61 ± 0.4 %ID/g; tissue uptake at 4 h ([5]; Uptake in Spleen, 4 h block (co-injected 50 nmol DOTA-TATE)): 3.97 ± 0.9 %ID/g; tissue uptake at 4 h ([5]; Uptake in Stomach, 4 h block (co-injected 50 nmol DOTA-TATE)): 0.43 ± 0.12 %ID/g; tissue uptake at 4 h ([5]; Uptake in Tumor, 4 h block (co-injected 50 nmol DOTA-TATE)): 1.81 ± 0.14 %ID/g; tissue uptake at 1 h ([5]; iv, 2 nmol, Uptake in Blood): 6.96 ± 0.68 %ID/g; tissue uptake at 4 h ([5]; iv, 2 nmol, Uptake in Blood, 4 h p.i.): 4.7 ± 0.24 %ID/g; tissue uptake at 24 h ([5]; iv, 2 nmol, Uptake in Blood): 0.64 ± 0.11 %ID/g; tissue uptake at 1 h ([5]; iv, 2 nmol, Uptake in Bones): 2.29 ± 0.17 %ID/g; tissue uptake at 4 h ([5]; iv, 2 nmol, Uptake in Bones, 4 h p.i.): 1.7 ± 0.23 %ID/g; tissue uptake at 24 h ([5]; iv, 2 nmol, Uptake in Bones): 0.98 ± 0.21 %ID/g; tissue uptake at 1 h ([5]; iv, 2 nmol, Uptake in Heart): 4.14 ± 0.76 %ID/g; tissue uptake at 4 h ([5]; iv, 2 nmol, Uptake in Heart, 4 h p.i.): 2.5 ± 0.17 %ID/g; tissue uptake at 24 h ([5]; iv, 2 nmol, Uptake in Heart): 0.74 ± 0.12 %ID/g; tissue uptake at 1 h [5, 7]: 1.85 ± 0.24 %ID/g; tissue uptake at 4 h ([5]; iv, 2 nmol, Uptake in Intestines, 4 h p.i.): 1.85 ± 0.24 %ID/g; tissue uptake at 24 h [5, 7]: 0.44 ± 0.09 %ID/g; tissue uptake at 1 h ([5]; iv, 2 nmol, Uptake in Kidneys): 33.2 ± 3.27 %ID/g; tissue uptake at 4 h ([5]; iv, 2 nmol, Uptake in Kidneys, 4 h p.i.): 36.6 ± 2.02 %ID/g; tissue uptake at 24 h ([5]; iv, 2 nmol, Uptake in Kidneys): 30.6 ± 5.9 %ID/g; tissue uptake at 1 h ([5]; iv, 2 nmol, Uptake in Liver): 8.88 ± 0.9 %ID/g; tissue uptake at 24 h ([5]; iv, 2 nmol, Uptake in Liver): 6.03 ± 1.14 %ID/g; tissue uptake at 1 h ([5]; iv, 2 nmol, Uptake in Lungs): 8.07 ± 1.18 %ID/g; tissue uptake at 4 h ([5]; iv, 2 nmol, Uptake in Lungs, 4 h p.i.): 7.71 ± 0.87 %ID/g; tissue uptake at 24 h ([5]; iv, 2 nmol, Uptake in Lungs): 1.75 ± 0.19 %ID/g; tissue uptake at 1 h ([5]; iv, 2 nmol, Uptake in Muscle): 1.07 ± 0.1 %ID/g; tissue uptake at 4 h ([5]; iv, 2 nmol, Uptake in Muscle, 4 h p.i.): 0.73 ± 0.08 %ID/g; tissue uptake at 24 h ([5]; iv, 2 nmol, Uptake in Muscle): 0.26 ± 0.05 %ID/g; tissue uptake at 1 h ([5]; iv, 2 nmol, Uptake in Pancreas): 1.99 ± 0.26 %ID/g; tissue uptake at 4 h ([5]; iv, 2 nmol, Uptake in Pancreas, 4 h p.i.): 1.28 ± 0.17 %ID/g; tissue uptake at 24 h ([5]; iv, 2 nmol, Uptake in Pancreas): 0.64 ± 0.18 %ID/g; tissue uptake at 1 h ([5]; iv, 2 nmol, Uptake in Skin): 5.73 ± 1.28 %ID/g; tissue uptake at 4 h ([5]; iv, 2 nmol, Uptake in Skin, 4 h p.i.): 3.78 ± 0.35 %ID/g; tissue uptake at 24 h ([5]; iv, 2 nmol, Uptake in Skin): 1.54 ± 0.35 %ID/g; tissue uptake at 1 h ([5]; iv, 2 nmol, Uptake in Spleen): 5.09 ± 0.72 %ID/g; tissue uptake at 4 h ([5]; iv, 2 nmol, Uptake in Spleen, 4 h p.i.): 3.58 ± 1.02 %ID/g; tissue uptake at 24 h ([5]; iv, 2 nmol, Uptake in Spleen): 2.03 ± 0.43 %ID/g; tissue uptake at 1 h ([5]; iv, 2 nmol, Uptake in Stomach): 2.66 ± 0.49 %ID/g; tissue uptake at 4 h ([5]; iv, 2 nmol, Uptake in Stomach, 4 h p.i.): 1.41 ± 0.19 %ID/g; tissue uptake at 24 h ([5]; iv, 2 nmol, Uptake in Stomach): 0.77 ± 0.22 %ID/g; tissue uptake at 1 h ([5]; iv, 2 nmol, Uptake in Tumor): 2.56 ± 0.38 %ID/g; tissue uptake at 4 h ([5]; iv, 2 nmol, Uptake in Tumor, 4 h p.i.): 3.04 ± 0.49 %ID/g; tissue uptake at 24 h ([5]; iv, 2 nmol, Uptake in Tumor): 2.21 ± 0.31 %ID/g; Tumor uptake lower than the tumor uptake of [111In]In-DOTA-TATE ([6]; 1 h p.i.): 54%; Tumor uptake reduction by co-injection of an excess of DOTA-TATE ([6]; 4 h p.i., compared to the unblocked group): 40%; Tumor uptake lower than the tumor uptake of [111In]In-DOTA-TATE ([6]; 24 h p.i.): 31%
